From PMC2119608

Target: CD3 gamma subunit, transiently expressed in COS cells (human) (UniProt P09693)
Assay: co-IP

Sequence of UniProt P09693 (P09693 23-182): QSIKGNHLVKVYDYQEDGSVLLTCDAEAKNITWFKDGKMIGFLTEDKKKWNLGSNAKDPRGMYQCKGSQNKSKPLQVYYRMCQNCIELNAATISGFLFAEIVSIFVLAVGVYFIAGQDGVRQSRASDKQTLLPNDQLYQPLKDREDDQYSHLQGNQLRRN

**Q.** With “T cell antigen receptor (TCR) beta chain, transiently expressed in COS cells” as the sequence, how does the percent bound to CD3 subunits read?
**A.** 60%
